According to publication PMC3135480 (Molecular Biology of the Cell, 2011):

Target: T1, HA-tagged PXL-1 full-length (residues 1-413) (C. elegans, UniProt Q09476 1-413)
T1 sequence (looked up): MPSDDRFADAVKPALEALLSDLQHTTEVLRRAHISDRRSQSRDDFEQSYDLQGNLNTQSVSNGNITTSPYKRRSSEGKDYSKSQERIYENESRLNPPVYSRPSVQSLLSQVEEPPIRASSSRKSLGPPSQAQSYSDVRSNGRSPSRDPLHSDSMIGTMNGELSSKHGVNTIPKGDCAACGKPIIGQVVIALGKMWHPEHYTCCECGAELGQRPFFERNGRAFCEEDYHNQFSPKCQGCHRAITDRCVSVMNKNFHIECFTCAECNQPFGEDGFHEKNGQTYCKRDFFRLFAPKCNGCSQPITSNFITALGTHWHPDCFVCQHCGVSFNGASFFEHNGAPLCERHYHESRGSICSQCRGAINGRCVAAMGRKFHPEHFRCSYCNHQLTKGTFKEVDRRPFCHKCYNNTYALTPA
Experiment: pull-down

B1: MBP fusion of UNC-95 full-length (natural protein, C. elegans, UniProt Q9NEZ5 1-350, looked up)
chain: MTISPQPSHQQFESYQWTTESRSSQQRHGTGTPSQDGRLSAIPDPVERHVARWRSESRNSNKDKVFRNDEEFSQQDEIVNGTLTALKNDVEQTTEIIRRKQEQMRMERRQFQTEMEVNGRISIDPTDDWLAARLKAVSSDDMNQQLVKLKQDQRQNAVTDTLAALVYDVNATTEVLRRGQRGRDGEDGNKKKKEEIEYTLRLTPAPEEQIPQRPKIPEDDNMETDDYSRQYGVQMSEETDSLRRRRARSTTPRRTLHISGSPPPPAAAVCAYCSEEIDGAILTALAPNSERAQKFHTYHFMCTYCQKALNMHGTYREHDLKPYCHDCFYKLYNGLQYAPDDHQASIEKLI
B1: binds.
